Reference: PMC12403168, “Revisiting the co-crystal structure of a DNA glycosylase with photocaged substrate: a suitable time-resolved crystallography target?”

Key:
[1] = target: T1, hOgg1 N149C (8-oxoguanine DNA glycosylase) (Homo sapiens, UniProt O15527 12-327, N149C); experiment: X-ray crystallography; disulfide cross-linked complex, dark (G*Odark), 2.81 A; Complex formation: 20 mM Tris-HCl, 100 mM NaCl, 1 mM EDTA pH 7.4, on ice overnight (12 nmol DNA, 24 nmol protein in 1.2 ml); purified by anion exchange and SEC; crystallized at 13 mg/ml; settings: protein: recombinant; tags: His-tag (pET28a, NdeI/XhoI); 5' overhang 1 nt on each strand
T1 sequence (O15527 12-327 N149C): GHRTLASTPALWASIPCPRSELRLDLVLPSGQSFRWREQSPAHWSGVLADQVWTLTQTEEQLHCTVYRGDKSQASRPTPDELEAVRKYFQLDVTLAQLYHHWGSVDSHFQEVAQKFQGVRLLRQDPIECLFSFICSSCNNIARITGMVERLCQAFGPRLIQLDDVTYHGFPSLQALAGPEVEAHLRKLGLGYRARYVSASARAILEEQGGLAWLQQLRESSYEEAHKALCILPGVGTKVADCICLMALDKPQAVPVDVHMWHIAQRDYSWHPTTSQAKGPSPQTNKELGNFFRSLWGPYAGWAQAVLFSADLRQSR

[2] = target: T1, hOgg1 N149C (8-oxoguanine DNA …); experiment: X-ray crystallography; disulfide cross-linked complex, illuminated 365 nm (95 J) and cryotrapped (G*Olight), oG in active site at 68% occupancy, Ca2+ present, 2.48 A; Complex formation: 20 mM Tris-HCl, 100 mM NaCl, 1 mM EDTA pH 7.4, on ice overnight (12 nmol DNA, 24 nmol protein in 1.2 ml); purified by anion exchange and SEC; crystallized at 13 mg/ml; settings: protein: recombinant; tags: His-tag (pET28a, NdeI/XhoI); 5' overhang 1 nt on each strand

| Binder | binding result [1] | binding result [2] |
| --- | --- | --- |
| oG*/C‡ duplex (Table S1 entries 3 and 5) (dsDNA, strand 1 G9 = photocaged 8-oxoguanine (oG*); strand 2 C9 = N4-modified cytosine (C‡) for disulfide cross-linking) DNA 1: AGCGTCCAGGTCTACC DNA 2: TGGTAGACCTGGACGC | binds | – |
| oG/C‡ duplex, uncaged in crystallo by 365 nm light (dsDNA, strand 1 G9 = 8-oxoguanine (oG) after photodeprotection; strand 2 C9 = N4-modified cytosine (C‡), disulfide to Cys149) DNA 1: AGCGTCCAGGTCTACC DNA 2: TGGTAGACCTGGACGC | – | binds |
